We go through 17 molecules from patent US20250011410A1 (INVETX, published 2025).

For the assay, the target named is T1, canine NGF tagged at the C-terminus with the Flag tag (canine, UniProt A0A8I3PYI3 122-241).
T1 construct: mature; Expressed with baculovirus technology; also called feline NGF (processed form identical)
Description: SPR off-rate screen, Fab-SASA on BSA chip.

T1 sequence (A0A8I3PYI3 entry or part of it): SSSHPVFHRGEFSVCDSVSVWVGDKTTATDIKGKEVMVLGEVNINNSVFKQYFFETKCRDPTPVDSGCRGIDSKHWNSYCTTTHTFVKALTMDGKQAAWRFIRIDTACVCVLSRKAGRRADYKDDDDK

B1: felinized clone 101 Fab-SASA variant N53M (VL) (Fab, V domains shown, not shown: small tags and cut ends)
VH: DVQLVESGGDLVKPGGSLRLTCVASGLSLTSSSMSWVRQAPGKGLQWVSTIYSNGGTYYTDSVKGRFTISKDNAENTLYLQMNNLKTEDTATYYCASIYYYDADYLHWYFDFWGQGALVTVSS
VL: EIQMTQSPTSLSASVGDRVTITCRASEGISNNLSWYQQTPGKAPKLLIYATSMLHSGVPSRFSGSGSGTDFTLTISSLQPEDFATYYCQQGYKWPLTFGGGTKLEITR
By Kd is commonly meant the free concentration of one partner at which half of the binding sites on the other are occupied at equilibrium, for simple one-to-one binding. Higher therefore signals weaker binding. Usually koff stands for the rate constant with which the complex falls apart. In general, kon refers to the second-order rate constant of association. Read a high kon as fast association. Take B1: the Kd came to 1.87 nM, the “Ratio WT-kd/clone-kd” value was 1.46, the koff is 0.000648 s⁻¹ and the kon came out at 346000 M⁻¹ s⁻¹.

B2: felinized clone 101 Fab-SASA variant S28H (VH) (Fab, V domains shown, not shown: small tags and cut ends)
VH: DVQLVESGGDLVKPGGSLRLTCVASGLHLTSSSMSWVRQAPGKGLQWVSTIYSNGGTYYTDSVKGRFTISKDNAENTLYLQMNNLKTEDTATYYCASIYYYDADYLHWYFDFWGQGALVTVSS
VL: EIQMTQSPTSLSASVGDRVTITCRASEGISNNLSWYQQTPGKAPKLLIYATSNLHSGVPSRFSGSGSGTDFTLTISSLQPEDFATYYCQQGYKWPLTFGGGTKLEITR
On to B2, for which the Kd worked out at 2.55 nM, the “Ratio WT-kd/clone-kd” value stood at 1.18, the koff turned out to be 0.000802 s⁻¹ and the kon turned out to be 315000 M⁻¹ s⁻¹.

B3: felinized clone 101 Fab-SASA variant S35V (VH) (Fab, V domains shown, not shown: small tags and cut ends)
VH: DVQLVESGGDLVKPGGSLRLTCVASGLSLTSSSMVWVRQAPGKGLQWVSTIYSNGGTYYTDSVKGRFTISKDNAENTLYLQMNNLKTEDTATYYCASIYYYDADYLHWYFDFWGQGALVTVSS
VL: EIQMTQSPTSLSASVGDRVTITCRASEGISNNLSWYQQTPGKAPKLLIYATSNLHSGVPSRFSGSGSGTDFTLTISSLQPEDFATYYCQQGYKWPLTFGGGTKLEITR
B3: the Kd was determined as 1.17 nM, the “Ratio WT-kd/clone-kd” value came to 2.62, the koff stood at 0.00036 s⁻¹ and the on-rate (kon) turned out to be 309000 M⁻¹ s⁻¹.

B4: felinized clone 101 Fab-SASA variant R24F (VL) (Fab, V domains shown, not shown: small tags and cut ends)
VH: DVQLVESGGDLVKPGGSLRLTCVASGLSLTSSSMSWVRQAPGKGLQWVSTIYSNGGTYYTDSVKGRFTISKDNAENTLYLQMNNLKTEDTATYYCASIYYYDADYLHWYFDFWGQGALVTVSS
VL: EIQMTQSPTSLSASVGDRVTITCFASEGISNNLSWYQQTPGKAPKLLIYATSNLHSGVPSRFSGSGSGTDFTLTISSLQPEDFATYYCQQGYKWPLTFGGGTKLEITR
Consider B4, for which the Kd came out at 2.28 nM, the “Ratio WT-kd/clone-kd” value was 1.44, the off-rate constant (koff) is 0.000655 s⁻¹ and the kon turned out to be 287000 M⁻¹ s⁻¹.

B5: felinized clone 101 Fab-SASA variant N53V (VL) (Fab, V domains shown, not shown: small tags and cut ends)
VH: DVQLVESGGDLVKPGGSLRLTCVASGLSLTSSSMSWVRQAPGKGLQWVSTIYSNGGTYYTDSVKGRFTISKDNAENTLYLQMNNLKTEDTATYYCASIYYYDADYLHWYFDFWGQGALVTVSS
VL: EIQMTQSPTSLSASVGDRVTITCRASEGISNNLSWYQQTPGKAPKLLIYATSVLHSGVPSRFSGSGSGTDFTLTISSLQPEDFATYYCQQGYKWPLTFGGGTKLEITR
On to B5, for which the Kd worked out at 1.42 nM, the “Ratio WT-kd/clone-kd” value came out at 2.32, the koff was 0.000407 s⁻¹ and the association rate constant (kon) worked out at 288000 M⁻¹ s⁻¹.

B6: felinized clone 101 Fab-SASA variant S56D (VL) (Fab, V domains shown, not shown: small tags and cut ends)
VH: DVQLVESGGDLVKPGGSLRLTCVASGLSLTSSSMSWVRQAPGKGLQWVSTIYSNGGTYYTDSVKGRFTISKDNAENTLYLQMNNLKTEDTATYYCASIYYYDADYLHWYFDFWGQGALVTVSS
VL: EIQMTQSPTSLSASVGDRVTITCRASEGISNNLSWYQQTPGKAPKLLIYATSNLHDGVPSRFSGSGSGTDFTLTISSLQPEDFATYYCQQGYKWPLTFGGGTKLEITR
Take B6: the dissociation constant Kd worked out at 2.03 nM, the “Ratio WT-kd/clone-kd” value is 1.25, the dissociation rate constant (koff) is 0.000755 s⁻¹ and the kon was 372000 M⁻¹ s⁻¹.

B7: felinized clone 101 Fab-SASA variant S30A (VL) (Fab, V domains shown, not shown: small tags and cut ends)
VH: DVQLVESGGDLVKPGGSLRLTCVASGLSLTSSSMSWVRQAPGKGLQWVSTIYSNGGTYYTDSVKGRFTISKDNAENTLYLQMNNLKTEDTATYYCASIYYYDADYLHWYFDFWGQGALVTVSS
VL: EIQMTQSPTSLSASVGDRVTITCRASEGIANNLSWYQQTPGKAPKLLIYATSNLHSGVPSRFSGSGSGTDFTLTISSLQPEDFATYYCQQGYKWPLTFGGGTKLEITR
For B7, the Kd is 1.05 nM, the “Ratio WT-kd/clone-kd” value was 3.23, the koff turned out to be 0.000292 s⁻¹ and the on-rate constant (kon) came out at 277000 M⁻¹ s⁻¹.

B8: felinized clone 101 Fab-SASA variant S30L (VL) (Fab, V domains shown, not shown: small tags and cut ends)
VH: DVQLVESGGDLVKPGGSLRLTCVASGLSLTSSSMSWVRQAPGKGLQWVSTIYSNGGTYYTDSVKGRFTISKDNAENTLYLQMNNLKTEDTATYYCASIYYYDADYLHWYFDFWGQGALVTVSS
VL: EIQMTQSPTSLSASVGDRVTITCRASEGILNNLSWYQQTPGKAPKLLIYATSNLHSGVPSRFSGSGSGTDFTLTISSLQPEDFATYYCQQGYKWPLTFGGGTKLEITR
In the case of B8, the Kd was 1.87 nM, the “Ratio WT-kd/clone-kd” value is 1.86, the off-rate constant (koff) stood at 0.000507 s⁻¹ and the kon was found to be 270000 M⁻¹ s⁻¹.

B9: felinized clone 101 Fab-SASA variant S34A (VL) (Fab, V domains shown, not shown: small tags and cut ends)
VH: DVQLVESGGDLVKPGGSLRLTCVASGLSLTSSSMSWVRQAPGKGLQWVSTIYSNGGTYYTDSVKGRFTISKDNAENTLYLQMNNLKTEDTATYYCASIYYYDADYLHWYFDFWGQGALVTVSS
VL: EIQMTQSPTSLSASVGDRVTITCRASEGISNNLAWYQQTPGKAPKLLIYATSNLHSGVPSRFSGSGSGTDFTLTISSLQPEDFATYYCQQGYKWPLTFGGGTKLEITR
For the molecule B9, the Kd stood at 1.74 nM, the “Ratio WT-kd/clone-kd” value was 1.2, the koff was 0.000783 s⁻¹ and the on-rate (kon) was 450000 M⁻¹ s⁻¹.

B10: felinized clone 101 Fab-SASA variant S30V (VL) (Fab, V domains shown, not shown: small tags and cut ends)
VH: DVQLVESGGDLVKPGGSLRLTCVASGLSLTSSSMSWVRQAPGKGLQWVSTIYSNGGTYYTDSVKGRFTISKDNAENTLYLQMNNLKTEDTATYYCASIYYYDADYLHWYFDFWGQGALVTVSS
VL: EIQMTQSPTSLSASVGDRVTITCRASEGIVNNLSWYQQTPGKAPKLLIYATSNLHSGVPSRFSGSGSGTDFTLTISSLQPEDFATYYCQQGYKWPLTFGGGTKLEITR
On to B10, for which the Kd was 1.68 nM, the “Ratio WT-kd/clone-kd” value was 1.95, the koff was found to be 0.000483 s⁻¹ and the kon came out at 287000 M⁻¹ s⁻¹.

B11: felinized clone 101 Fab-SASA variant S30Q (VL) (Fab, V domains shown, not shown: small tags and cut ends)
VH: DVQLVESGGDLVKPGGSLRLTCVASGLSLTSSSMSWVRQAPGKGLQWVSTIYSNGGTYYTDSVKGRFTISKDNAENTLYLQMNNLKTEDTATYYCASIYYYDADYLHWYFDFWGQGALVTVSS
VL: EIQMTQSPTSLSASVGDRVTITCRASEGIQNNLSWYQQTPGKAPKLLIYATSNLHSGVPSRFSGSGSGTDFTLTISSLQPEDFATYYCQQGYKWPLTFGGGTKLEITR
As for B11, the Kd worked out at 1.25 nM, the “Ratio WT-kd/clone-kd” value was 2.91, the off-rate (koff) worked out at 0.000324 s⁻¹ and the kon turned out to be 259000 M⁻¹ s⁻¹.

B12: felinized clone 101 Fab-SASA variant S53P (VH) (Fab, V domains shown, not shown: small tags and cut ends)
VH: DVQLVESGGDLVKPGGSLRLTCVASGLSLTSSSMSWVRQAPGKGLQWVSTIYPNGGTYYTDSVKGRFTISKDNAENTLYLQMNNLKTEDTATYYCASIYYYDADYLHWYFDFWGQGALVTVSS
VL: EIQMTQSPTSLSASVGDRVTITCRASEGISNNLSWYQQTPGKAPKLLIYATSNLHSGVPSRFSGSGSGTDFTLTISSLQPEDFATYYCQQGYKWPLTFGGGTKLEITR
Regarding B12, binding was characterised by a dissociation constant (Kd) of 2.15 nM, the “Ratio WT-kd/clone-kd” value amounted to 1.36, the koff is 0.000695 s⁻¹ and the kon came out at 323000 M⁻¹ s⁻¹.

B13: felinized clone 101 Fab-SASA variant S30Y (VL) (Fab, V domains shown, not shown: small tags and cut ends)
VH: DVQLVESGGDLVKPGGSLRLTCVASGLSLTSSSMSWVRQAPGKGLQWVSTIYSNGGTYYTDSVKGRFTISKDNAENTLYLQMNNLKTEDTATYYCASIYYYDADYLHWYFDFWGQGALVTVSS
VL: EIQMTQSPTSLSASVGDRVTITCRASEGIYNNLSWYQQTPGKAPKLLIYATSNLHSGVPSRFSGSGSGTDFTLTISSLQPEDFATYYCQQGYKWPLTFGGGTKLEITR
On to B13, for which the affinity, expressed as Kd, was 2.2 nM; the “Ratio WT-kd/clone-kd” value worked out at 1.21; the off-rate (koff) was 0.000782 s⁻¹; the kon was found to be 355000 M⁻¹ s⁻¹.

B14: felinized clone 101 Fab-SASA variant S30P (VL) (Fab, V domains shown, not shown: small tags and cut ends)
VH: DVQLVESGGDLVKPGGSLRLTCVASGLSLTSSSMSWVRQAPGKGLQWVSTIYSNGGTYYTDSVKGRFTISKDNAENTLYLQMNNLKTEDTATYYCASIYYYDADYLHWYFDFWGQGALVTVSS
VL: EIQMTQSPTSLSASVGDRVTITCRASEGIPNNLSWYQQTPGKAPKLLIYATSNLHSGVPSRFSGSGSGTDFTLTISSLQPEDFATYYCQQGYKWPLTFGGGTKLEITR
With B14, binding was put at a Kd of 2.56 nM, the “Ratio WT-kd/clone-kd” value is 1.41, the koff was 0.00067 s⁻¹ and the kon came out at 262000 M⁻¹ s⁻¹.

B15: felinized clone 101 Fab-SASA variant S56E (VL) (Fab, V domains shown, not shown: small tags and cut ends)
VH: DVQLVESGGDLVKPGGSLRLTCVASGLSLTSSSMSWVRQAPGKGLQWVSTIYSNGGTYYTDSVKGRFTISKDNAENTLYLQMNNLKTEDTATYYCASIYYYDADYLHWYFDFWGQGALVTVSS
VL: EIQMTQSPTSLSASVGDRVTITCRASEGISNNLSWYQQTPGKAPKLLIYATSNLHEGVPSRFSGSGSGTDFTLTISSLQPEDFATYYCQQGYKWPLTFGGGTKLEITR
In the case of B15, the dissociation constant Kd was found to be 2.19 nM, the “Ratio WT-kd/clone-kd” value was found to be 1.17, the dissociation rate constant (koff) turned out to be 0.000809 s⁻¹ and the kon worked out at 370000 M⁻¹ s⁻¹.

B16: felinized clone 101 Fab-SASA variant S31H (VH) (Fab, V domains shown, not shown: small tags and cut ends)
VH: DVQLVESGGDLVKPGGSLRLTCVASGLSLTHSSMSWVRQAPGKGLQWVSTIYSNGGTYYTDSVKGRFTISKDNAENTLYLQMNNLKTEDTATYYCASIYYYDADYLHWYFDFWGQGALVTVSS
VL: EIQMTQSPTSLSASVGDRVTITCRASEGISNNLSWYQQTPGKAPKLLIYATSNLHSGVPSRFSGSGSGTDFTLTISSLQPEDFATYYCQQGYKWPLTFGGGTKLEITR
Take B16: the Kd was found to be 1.98 nM, the “Ratio WT-kd/clone-kd” value stood at 1.54, the dissociation rate constant (koff) was determined as 0.000612 s⁻¹ and the kon was 310000 M⁻¹ s⁻¹.

B17: felinized clone 101 Fab-SASA variant S34G (VL) (Fab, V domains shown, not shown: small tags and cut ends)
VH: DVQLVESGGDLVKPGGSLRLTCVASGLSLTSSSMSWVRQAPGKGLQWVSTIYSNGGTYYTDSVKGRFTISKDNAENTLYLQMNNLKTEDTATYYCASIYYYDADYLHWYFDFWGQGALVTVSS
VL: EIQMTQSPTSLSASVGDRVTITCRASEGISNNLGWYQQTPGKAPKLLIYATSNLHSGVPSRFSGSGSGTDFTLTISSLQPEDFATYYCQQGYKWPLTFGGGTKLEITR
B17: the dissociation constant Kd came out at 1.13 nM, the “Ratio WT-kd/clone-kd” value was found to be 1.83, the dissociation rate constant (koff) worked out at 0.000514 s⁻¹ and the kon is 456000 M⁻¹ s⁻¹.
